Substitutions are numbered along the chain they refer to. Like-named read-outs stand apart in the source and are kept apart here.
T1: Extracellular domain of cyno PD1 (cPD1-ECD) (Macaca fascicularis (cynomolgus))
T1 construct: Expressed with a hexahistidine tag or as Fc fusion; also called cynoPD1-ECD; cynoPD-1-ECD
T1 chain: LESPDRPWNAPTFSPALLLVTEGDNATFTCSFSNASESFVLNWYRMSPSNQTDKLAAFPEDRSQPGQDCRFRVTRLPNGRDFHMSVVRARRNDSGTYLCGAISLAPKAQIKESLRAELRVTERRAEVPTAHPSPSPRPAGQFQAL

T2: cyno TIM-3 on transfected cells (cyno, UniProt A0A2K5U3G7 22-294)
T2 construct: whole, on cells; also called Cyno cells
T2 sequence: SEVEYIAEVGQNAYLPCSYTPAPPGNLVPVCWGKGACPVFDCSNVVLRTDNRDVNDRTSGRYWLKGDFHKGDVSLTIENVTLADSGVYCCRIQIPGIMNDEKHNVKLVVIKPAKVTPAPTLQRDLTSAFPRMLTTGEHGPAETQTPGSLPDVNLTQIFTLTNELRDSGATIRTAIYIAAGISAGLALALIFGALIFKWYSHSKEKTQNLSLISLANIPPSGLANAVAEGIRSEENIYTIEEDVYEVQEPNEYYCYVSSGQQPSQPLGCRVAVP

B1: PD1B71 (antibody, V domains shown)
VH: QVQLVQSGAEVKKPGSSVKVSCKASGGTFSSYAISWVRQAPGQGLEWMGGIIPIFGTANYAQKFQGRVTITADESTSTAYMELSSLRSEDTAVYYCARGTLDRTGHLDYWGQGTLVTVSS
VL: EIVLTQSPATLSLSPGERATLSCRASQSVSSYLAWYQQKPGQAPRLLIYDASNRATGIPARFSGSGSGTDFTLTISSLEPEDFAVYYCQQRSNWPLTFGQGTKVEIK
notes: Tested as IgG2sigma/kappa; also called PD1H108/PH9L3
B2: PD1B195 (antibody, V domains shown)
VH: QVQLVQSGAEVKKPGSSVKVSCKASGGTFSSYAISWVRQAPGQGLEWMGGIIPIFDTANYAQKFQGRVTITADESTSTAYMELSSLRSEDTAVYYCARPGLAAAYDTGSLDYWGQGTLVTVSS
VL: B1 VL with S30D, S92E, N93Y
notes: also called PD1H170/PD1L67
B3: PD1B149 (antibody, human IgG2, kappa, V domains shown)
VH: B2 VH with D56G, S109N
VL: EIVLTQSPATLSLSPGERATLSCRASQSVRNYLAWYQQKPGQAPRLLIHDASNRATGIPARFSGSGSGTDFTLTISSLEPEDFAVYYCQQRNYWPLTFGQGTKVEIKR
notes: IgG2sigma/kappa; VH 41, VL 50; also called PD1H24/PD1L128
B4: TM3B105 (antibody, human IgG2, kappa, V domains shown)
VH: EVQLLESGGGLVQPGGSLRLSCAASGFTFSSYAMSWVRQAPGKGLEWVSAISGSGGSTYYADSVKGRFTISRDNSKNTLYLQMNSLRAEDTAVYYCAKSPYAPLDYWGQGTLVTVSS
VL: B3 VL with R30N, N31D, H49Y, R91G, N92G, Y93H, W94A, L96I
notes: IgG2sigma/kappa; VH 146, VL 156; also called TM3H24/TM3L33
B5: TM3B189 (antibody, V domains shown)
VH: EVQLQQSGPELLKPGASVKMSCKASGYTFTSYVMYWVKQKPGQGLEWIGYINPYNDGTKYNEKFKGKATLTSDKSSSTAYMELSRLTSEDSAVYYCTRDDYDVAPFAYWGQGTLVTVSA
VL: DIVLTQSPASLAVSLGQRATISCRASESLDSYGNSYIHWYQQKPGQPPKLLIYLASNLESGVPARFSGSGSKTDFTLTIDPVEADDPATYYCQQNNEDPFTFGSGTKLEIK
notes: Mouse-derived variable domains; also called TM3H141/TM3L61
B6: TM3B190 (antibody, V domains shown)
VH: DVQLQESGPGLVKPSQSLSLTCTVTGYSITSDYAWNWIRQFPGNKLEWMGYINYSGRTSYNPSLKSRISITRDTSKNQFFLQLNSVTTEDTATYYCTSGGNFDYWGQGTTLTVSS
VL: DIVMTQSPSSMSASLGDRITITCQATQDIVKNLNWYQQKPGKPPSFLIHYVTELAEGVPSRFSGSGSGSDYSLTISNLESEDFADYYCLQFYEFPLTFGAGTKLELK
notes: Mouse-derived variable domains; also called TM3H96/TM3L62

Key:
[1] = target: T3, Full length human PD1 (huPD1) on cells (human, UniProt Q15116 25-288); test: flow cytometry, PHA-stimulated Jurkat cells
T3 construct: on T cells of human donors in the MLR and CMV assays (functional); also called PD-1 on Jurkat cells
T3 sequence (Q15116 25-288 limits assumed): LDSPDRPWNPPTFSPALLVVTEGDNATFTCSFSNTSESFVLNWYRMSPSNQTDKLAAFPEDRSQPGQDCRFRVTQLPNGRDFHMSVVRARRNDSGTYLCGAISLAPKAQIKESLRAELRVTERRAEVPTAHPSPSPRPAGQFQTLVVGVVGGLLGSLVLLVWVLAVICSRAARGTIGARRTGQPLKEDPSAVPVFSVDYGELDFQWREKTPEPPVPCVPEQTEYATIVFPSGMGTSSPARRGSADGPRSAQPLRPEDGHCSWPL
Method: (§1) Jurkat cells were stimulated overnight with 20 ng/ml of PHA, harvested, washed, and checked for viability. The cells were then incubated at 6-10° C. for 45-60 minutes with various concentrations of test antibodies, washed and incubated at 6-10° C. for 45-60 minutes with FITC-labeled goat anti-human IgG. The cells were washed and fixed with BD Cytofix, refrigerated overnight and analyzed on a MACSQuant flow cytometer. The percentage of PD-1 positive cells at each antibody concentration was plotted vs log of the antibody concentration and EC₅₀ values were generated in Prism.

[2] = target: T3, Full length human PD1 (huPD1) on cells; test: flow cytometry, PHA-stimulated Jurkat cells; remark: listed apart in the source
Method: as §1

[3] = target: T4, Extracellular domain of human PD1 (huPD1-ECD) (human, UniProt Q15116 25-169, biotinylated in the ligand inhibition assay (sites not given)); test: SPR ProteOn, huPD1-ECD; RANGE low replicate
T4 construct: Expressed with a hexahistidine tag or as Fc fusion; also called biotinylated PD-1
T4 sequence (Q15116 25-169 limits assumed): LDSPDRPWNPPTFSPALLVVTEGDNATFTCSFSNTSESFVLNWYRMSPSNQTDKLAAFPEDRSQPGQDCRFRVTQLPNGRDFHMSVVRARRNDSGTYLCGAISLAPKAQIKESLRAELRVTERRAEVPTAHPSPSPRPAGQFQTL

[4] = target: T4, Extracellular domain of human PD1 …; test: SPR ProteOn, captured mAb, huPD1-ECD analyte
Method: (§2) Affinity measurements using Surface Plasmon Resonance (SPR) were performed using a ProteOn XPR36 system. A biosensor surface was prepared by coupling a mixture of anti-IgG Fc modified alginate polymer layer surface of a GLC chip using the manufacturer instructions for amine-coupling chemistry. […] The collected data were processed and fitted to a Langmuir 1:1 binding model. The result for each mAb was reported in the format of kₒₙ (On-rate), koff (Off-rate) and KD (equilibrium dissociation constant).
(§3) STDEV were calculated for 3 or more replicates generated for human and cyno proteins. If less than 3 replicates were calculated, RANGE was indicated. RANGE is defined as the low and high values for the replicates tested. For samples in the Table 10 or Table 11 without value indicated in RANGE or STDEV, only one experiment was performed.

[5] = target: T4, Extracellular domain of human PD1 …; test: SPR ProteOn, captured mAb, huPD1-ECD analyte; remark: listed apart in the source
Method: as §2
(§4) STDEV were calculated for 3 or more replicates generated for human and cyno proteins. If less than 3 replicates were calculated, RANGE is indicated. RANGE is defined as the low and high values for the replicates tested. For samples without RANGE or STDEV, only one experiment was performed

[6] = target: T4, Extracellular domain of human PD1 …; test: SPR ProteOn, huPD1-ECD; RANGE high replicate
Method: as §2, §4

[7] = target: T1, Extracellular domain of cyno PD1 …; test: SPR ProteOn, cynoPD1-ECD; RANGE low replicate
Method: as §2, §4

[8] = target: T1, Extracellular domain of cyno PD1 …; test: SPR ProteOn, captured mAb, cynoPD1-ECD analyte
[9] = target: T1, Extracellular domain of cyno PD1 …; test: SPR ProteOn, captured mAb, cynoPD1-ECD analyte
Method: as §2, §4

[10] = target: T1, Extracellular domain of cyno PD1 …; test: SPR ProteOn, cynoPD1-ECD; RANGE high replicate
Method: as §2, §4

[11] = target: T4, Extracellular domain of human PD1 …; test: MSD ligand inhibition, competitor coated huPDL1-ECD
Method: (§5) The ligand inhibition assay design was MSD (Mescoscale Discovery) based. A MSD plate was directly coated with ligand (cynoPDL1-ECD, huPDL1-ECD or huPDL2-ECD) and incubated overnight at 4° C. The following day, the coating solution was removed and the plate was blocked. […] Depending on the panel of antibodies to be tested, the antibodies were tested as titrations or at a fixed concentration.

[12] = target: T4, Extracellular domain of human PD1 …; test: MSD ligand inhibition, competitor coated huPDL2-ECD
Method: as §5

[13] = target: T4, Extracellular domain of human PD1 …; test: MSD ligand inhibition, competitor coated cynoPDL1-ECD
Method: as §5

[14] = target: T4, Extracellular domain of human PD1 …; test: as above; remark: listed apart in the source
[15] = target: T4, Extracellular domain of human PD1 …; test: SPR ProteOn, captured mAb; antigen species not given
[16] = target: T4, Extracellular domain of human PD1 …; test: SPR ProteOn, huPD1-ECD; RANGE high replicate; RANGE high replicate
Method: as §2, §4

[17] = target: T1, Extracellular domain of cyno PD1 …; test: SPR ProteOn, cynoPD1-ECD; RANGE high replicate; RANGE high replicate
Method: as §2, §4

[18] = target: T3, Full length human PD1 (huPD1) on cells; test: cell-based or functional assay
[19] = target: T1, Extracellular domain of cyno PD1 …; test: SPR ProteOn, cynoPD1-ECD; RANGE low replicate; RANGE low replicate
Method: as §2, §4

[20] = target: T1, Extracellular domain of cyno PD1 …; test: SPR ProteOn, cynoPD1-ECD; RANGE low replicate
Method: as §2, §3

[21] = target: T1, Extracellular domain of cyno PD1 …; test: SPR ProteOn, cynoPD1-ECD; RANGE high replicate
Method: as §2, §3

[22] = target: T1, Extracellular domain of cyno PD1 …; test: SPR ProteOn, cynoPD1-ECD; RANGE high replicate; RANGE high replicate
Method: as §2, §3

[23] = target: T4, Extracellular domain of human PD1 …; test: SPR ProteOn, captured mAb, huPD1-ECD analyte; approximation (chi2 > 20%)
Method: as §2
STDEV were calculated for 3 or more replicates generated for human and cyno proteins. If less than 3 replicates were calculated, RANGE was indicated. RANGE is defined as the low and high values for the replicates tested.

[24] = target: T2, cyno TIM-3 on transfected cells; test: binding to cells transfected with cyno TIM-3
[25] = target: T5, Full length human TIM-3 on transfected cells (human, UniProt Q8TDQ0 22-301); test: binding to cells transfected with human TIM-3
T5 construct: also called Human cells

[26] = target: T6, recombinant human TIM-3-Fc fusion protein (huTIM-3-Fc) (human, UniProt Q8TDQ0 22-200); test: competition ELISA on coated Fc-TIM-3, competitor galectin-9
T6 construct: range 22-200; Bought from R&D Systems (NS0-derived); Deglycosylated for HDX-MS; also called recombinant human Fc-TIM-3 chimera; TIM-3 IgG1 Fc Chimera; not shown: IgG1 Fc of the bought chimera

Binder | EC50 [2] [µg/mL] | koff [4] [s⁻¹] | kon [4] [M⁻¹ s⁻¹] | Kd [5] [nM] | koff [5] [s⁻¹] | kon [5] [M⁻¹ s⁻¹] | Kd [7] [nM] | kon [7] [M⁻¹ s⁻¹] | Kd [8] [nM] | koff [8] [s⁻¹] | kon [8] [M⁻¹ s⁻¹] | Kd [9] [nM] | koff [9] [s⁻¹] | kon [9] [M⁻¹ s⁻¹] | Kd [10] [nM] | percentage ligand not blocked at 1 µg/ml [14] [%] | percentage ligand not blocked at 10 µg/ml [14] [%] | EC50 [24] [µg/mL] | EC50 [25] [µg/mL] | Galectin 9 Inhibition, % inhibition (maximal) [26] [%] | also measured
B1 | 0.13 | 0.0273 | 548000 | 23.5 | 0.0225 | 955000 | 44.4 | 337000 | 66.8 | 0.0203 | 304000 | 52 | 0.0196 | 377000 | 61.4 | 6 | 9 | – | – | – | EC50 [1]: 0.13 to 0.47 µg/mL; Kd [3]: 22.4 nM; koff [3]: 0.0219 s⁻¹; kon [3]: 933000 M⁻¹ s⁻¹; Kd [4]: 49.9 nM; Kd [6]: 24.7 nM; kon [6]: 976000 M⁻¹ s⁻¹; koff [7]: 0.0185 s⁻¹; IC50 [11]: 0.024 µg/mL; IC50 [12]: 0.035 µg/mL; IC50 [13]: 0.014 to 0.015 µg/mL; Kd [15]: 120 nM; koff [15]: 0.0277 s⁻¹; kon [15]: 231000 M⁻¹ s⁻¹; koff [16]: 0.023 s⁻¹; koff [17]: 0.0207 s⁻¹; kon [17]: 417000 M⁻¹ s⁻¹
B2 | – | – | – | 1.23 | 0.00152 | 1.23e+06 | 0.91 | 430000 | – | – | – | 0.94 | 0.000408 | 432000 | 0.97 | – | – | – | – | – | CMV EC50, nM (IFN-γ induction) [18]: 1.64 nM; kon [10]: 434000 M⁻¹ s⁻¹; koff [19]: 0.000396 s⁻¹; koff [17]: 0.000419 s⁻¹
B3 | 0.08 | 0.0062 | 532000 | – | – | – | – | – | 11.2 | 0.00357 | 320000 | – | – | – | – | 7 | 7 | – | – | – | Kd [20]: 10.9 nM; koff [20]: 0.00348 s⁻¹; kon [20]: 304000 M⁻¹ s⁻¹; Kd [21]: 11.4 nM; koff [22]: 0.00365 s⁻¹; kon [22]: 336000 M⁻¹ s⁻¹; Kd [23]: ~12 nM
B4 | – | – | – | – | – | – | – | – | – | – | – | – | – | – | – | – | – | 0.03 | 0.46 | 69.8 | –
B5 | – | – | – | – | – | – | – | – | – | – | – | – | – | – | – | – | – | 0.19 | 0.74 | 76.4 | –
B6 | – | – | – | – | – | – | – | – | – | – | – | – | – | – | – | – | – | 0.08 | 0.35 | 60.7 | –

From patent US20210277110A1 (Janssen / Centocor, published 2021)
